Measured values published in patent US10941182 (Amgen, dated 2021).
Starred links: 1 amine or outer side, 2 acyl side, 3 side chain; linkers in the order of their positions; H or OH if unused. Non-standard residues stand in square brackets, D forms with d. Primed or numbered codes have the meaning given here. *: point of attachment. AC4Abu = α-carboxy-4-aminobutyric acid, O=C(C(CCN[*:1])C(=O)[*:3])[*:2]; dBip = N[C@H](Cc1ccc(-c2ccccc2)cc1)C(=O)O; Oic = O=C(O)[C@@H]1C[C@@H]2CCCC[C@@H]2N1; Phe(4-Cl) = N[C@@H](Cc1ccc(Cl)cc1)C(=O)O; dPhe(4-Cl) = N[C@H](Cc1ccc(Cl)cc1)C(=O)O; Heptadecanoyl = CCCCCCCCCCCCCCCCC(=O)*; Phe(4-I) = N[C@@H](Cc1ccc(I)cc1)C(=O)O; γGlu = O=C(O)[C@H](CCC(=O)[*:2])N[*:1]; NMeR = CN[C@@H](CCCNC(=N)N)C(=O)O; hArg = N=C(N)NCCCC[C@H](N)C(=O)O; Cha = N[C@@H](CC1CCCCC1)C(=O)O; NMeL = CN[C@@H](CC(C)C)C(=O)O; Nle = CCCC[C@H](N)C(=O)O; Pip′ = not defined here; Hexanoyl = CCCCCC(=O)*; AEEA = NCCOCCOCC(=O)O; Aib = CC(C)(N)C(=O)O; Ahx = NCCCCCC(=O)O; Mpa = O=C(O)CCS

T1: human APJ receptor (human, UniProt P35414 1-380)
T1 sequence (looked up): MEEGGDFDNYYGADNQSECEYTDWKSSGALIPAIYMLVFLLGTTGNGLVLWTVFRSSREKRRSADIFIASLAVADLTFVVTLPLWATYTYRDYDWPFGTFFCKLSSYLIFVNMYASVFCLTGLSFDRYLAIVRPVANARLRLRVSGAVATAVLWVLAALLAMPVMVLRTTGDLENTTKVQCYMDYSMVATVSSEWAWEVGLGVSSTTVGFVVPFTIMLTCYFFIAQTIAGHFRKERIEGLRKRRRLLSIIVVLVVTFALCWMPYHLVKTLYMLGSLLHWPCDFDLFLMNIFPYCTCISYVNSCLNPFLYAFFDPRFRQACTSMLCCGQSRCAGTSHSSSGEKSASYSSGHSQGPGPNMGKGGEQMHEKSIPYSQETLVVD

T2: rat APJ receptor (rat, UniProt Q9JHG3 1-377)
T2 sequence (looked up): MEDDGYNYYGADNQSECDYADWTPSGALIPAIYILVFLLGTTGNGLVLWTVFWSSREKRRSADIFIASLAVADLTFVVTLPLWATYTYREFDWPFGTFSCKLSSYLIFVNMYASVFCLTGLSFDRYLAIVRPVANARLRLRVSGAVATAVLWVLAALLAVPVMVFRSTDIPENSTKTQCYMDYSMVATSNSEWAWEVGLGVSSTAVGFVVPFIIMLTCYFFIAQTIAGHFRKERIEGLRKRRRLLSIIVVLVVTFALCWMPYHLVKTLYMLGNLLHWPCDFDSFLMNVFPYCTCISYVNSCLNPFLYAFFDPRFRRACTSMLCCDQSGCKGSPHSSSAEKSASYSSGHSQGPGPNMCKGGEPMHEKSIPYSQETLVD


Assays:
human APJ receptor = molecular target: T1, human APJ receptor; test: cell-based or functional assay
rat APJ receptor = molecular target: T2, rat APJ receptor; test: cell-based or functional assay

Binder | EC50 Human APJ Receptor (human APJ receptor) | EC50 Rat APJ Receptor (rat APJ receptor)
QRPRLSHKGPXPF ({H2}[MerPr](10K mPEG acetamide)QRP[hArg][aMeLeu]SHKGP[Nle]P[4-Cl-F]{COOH}) [SEQ ID NO: 117] | 19.7 nM | 117 nM
KLRKHNXLQRRXMPLHSRVPFP ({H2}KLRKHN[Abu]LQRR[Abu]MPLHSRVPFP{COOH}) [SEQ ID NO: 14] | 0.301 nM | 32.4 nM
Hexanoyl-[γGlu][AEEA][AEEA][hArg][dR]Q[hArg]P[dR][NMeL]SHKG[Oic][Phe(4-I)]P[dBip]-OH (SMILES CCCCCC(=O)N[C@@H](CCC(=O)NCCOCCOCC(=O)NCCOCCOCC(=O)N[C@@H](CCCCNC(=N)N)C(=O)N[C@H](CCCNC(=N)N)C(=O)N[C@@H](CCC(N)=O)C(=O)N[C@@H](CCCCNC(=N)N)C(=O)N1CCC[C@H]1C(=O)N[C@H](CCCNC(=N)N)C(=O)N(C)[C@@H](CC(C)C)C(=O)N[C@@H](CO)C(=O)N[C@@H](Cc1c[nH]cn1)C(=O)N[C@@H](CCCCN)C(=O)NCC(=O)N1[C@H](C(=O)N[C@@H](Cc2ccc(I)cc2)C(=O)N2CCC[C@H]2C(=O)N[C@H](Cc2ccc(-c3ccccc3)cc2)C(=O)O)C[C@@H]2CCCC[C@@H]21)C(=O)O) [SEQ ID NO: 286] | 1.62 nM | 3.07 nM
QRPRLSHKGPXPF ({H2}[MerPr](10K mPEG acetamide)Q[NMehArg]P[NMeArg][aMeLeu]SHKGP[Nle]P[4-Cl-F]{COOH}) [SEQ ID NO: 116] | 9.71 nM | 40.8 nM
QRPRLSHKGPXPF ({H2}[MerPr](10K mPEG acetamide)QRP[NMeArg]LSHKGP[Nle]P[4-Cl-F]{COOH}) [SEQ ID NO: 115] | 1.66 nM | 6.49 nM
{10K mPEG acetamide}-[Mpa]QRP[NMeR][Cha]SHKG[Oic][Nle][Aib][Phe(4-Cl)]-OH [SEQ ID NO: 120] | 63.2 nM | 258 nM
H-KFRRQRPRLSHKGPMP-OH [SEQ ID NO: 12] | 1.42 nM | 5.81 nM
QRPRLSHKGPXPF ({H2}[MerPr](10K mPEG acetamide)QrP[hArg][aMeLeu]SHKGP[Nle]P[4-Cl-F]{COOH}) [SEQ ID NO: 119] | 25.6 nM | 141 nM

Continued, values first:

EC50 Human APJ Receptor (human APJ receptor) | EC50 Rat APJ Receptor (rat APJ receptor) | Binder
0.658 nM | 4.59 nM | XXXQRPRLSHKGPXPF ({HexDDA}[AC4Abu][Aeea][Aeea]QRP[NMeArg]LSHKGP[Nle]P[4-Cl-F]{COOH}) [SEQ ID NO: 512]
3.33 nM | 5.17 nM | Heptadecanoyl-[AC4Abu][AEEA][AEEA][dQ]RP[NMeR][Cha]SHKG[Oic][Nle]P[dPhe(4-Cl)]-OH (SMILES CCCCCCCCCCCCCCCCC(=O)NCCC(C(=O)O)C(=O)NCCOCCOCC(=O)NCCOCCOCC(=O)N[C@H](CCC(N)=O)C(=O)N[C@@H](CCCNC(=N)N)C(=O)N1CCC[C@H]1C(=O)N(C)[C@@H](CCCNC(=N)N)C(=O)N[C@@H](CC1CCCCC1)C(=O)N[C@@H](CO)C(=O)N[C@@H](Cc1c[nH]cn1)C(=O)N[C@@H](CCCCN)C(=O)NCC(=O)N1[C@H](C(=O)N[C@@H](CCCC)C(=O)N2CCC[C@H]2C(=O)N[C@H](Cc2ccc(Cl)cc2)C(=O)O)C[C@@H]2CCCC[C@@H]21) [SEQ ID NO: 576]
3.49 nM | 13.2 nM | Hexanoyl-[γGlu][AEEA][AEEA][AEEA][hArg]Q[hArg]P[NMeR][Cha]SHKG[Oic][Nle]P[Phe(4-Cl)]-OH (SMILES CCCCCC(=O)N[C@@H](CCC(=O)NCCOCCOCC(=O)NCCOCCOCC(=O)NCCOCCOCC(=O)N[C@@H](CCCCNC(=N)N)C(=O)N[C@@H](CCC(N)=O)C(=O)N[C@@H](CCCCNC(=N)N)C(=O)N1CCC[C@H]1C(=O)N(C)[C@@H](CCCNC(=N)N)C(=O)N[C@@H](CC1CCCCC1)C(=O)N[C@@H](CO)C(=O)N[C@@H](Cc1c[nH]cn1)C(=O)N[C@@H](CCCCN)C(=O)NCC(=O)N1[C@H](C(=O)N[C@@H](CCCC)C(=O)N2CCC[C@H]2C(=O)N[C@@H](Cc2ccc(Cl)cc2)C(=O)O)C[C@@H]2CCCC[C@@H]21)C(=O)O) [SEQ ID NO: 506]
1.13 nM | 1.65 nM | Hexanoyl-[Ahx][AC4Abu][AEEA][AEEA][hArg][dR]Q[hArg]P[dR][NMeL]SHKG[Oic][Phe(4-I)]P[dBip]-OH (SMILES CCCCCC(=O)NCCCCCC(=O)NCCC(C(=O)O)C(=O)NCCOCCOCC(=O)NCCOCCOCC(=O)N[C@@H](CCCCNC(=N)N)C(=O)N[C@H](CCCNC(=N)N)C(=O)N[C@@H](CCC(N)=O)C(=O)N[C@@H](CCCCNC(=N)N)C(=O)N1CCC[C@H]1C(=O)N[C@H](CCCNC(=N)N)C(=O)N(C)[C@@H](CC(C)C)C(=O)N[C@@H](CO)C(=O)N[C@@H](Cc1c[nH]cn1)C(=O)N[C@@H](CCCCN)C(=O)NCC(=O)N1[C@H](C(=O)N[C@@H](Cc2ccc(I)cc2)C(=O)N2CCC[C@H]2C(=O)N[C@H](Cc2ccc(-c3ccccc3)cc2)C(=O)O)C[C@@H]2CCCC[C@@H]21) [SEQ ID NO: 566]
1.21 nM | 5.94 nM | XXXQRPRLSHKGPXPF ({hexanoyl}[AC4Abu][Aeea][Aeea]Q[NMehArg]P[NMeArg][aMeLeu]SHKGP[Nle]P[4-Cl-F]{COOH}) [SEQ ID NO: 561]
40.1 nM | 173 nM | XXXQRPRLSHKGPMPF ({ODDA}[AC4Abu][Aeea][Aeea]QRPRLSHKGPMPF{COOH}) [SEQ ID NO: 290]
3.85 nM | 16.3 nM | Hexanoyl-[AC4Abu][AEEA][AEEA]QRP[NMeR][Cha]SHKG[Oic][Nle][Aib][Phe(4-Cl)]-OH (SMILES CCCCCC(=O)NCCC(C(=O)O)C(=O)NCCOCCOCC(=O)NCCOCCOCC(=O)N[C@@H](CCC(N)=O)C(=O)N[C@@H](CCCNC(=N)N)C(=O)N1CCC[C@H]1C(=O)N(C)[C@@H](CCCNC(=N)N)C(=O)N[C@@H](CC1CCCCC1)C(=O)N[C@@H](CO)C(=O)N[C@@H](Cc1c[nH]cn1)C(=O)N[C@@H](CCCCN)C(=O)NCC(=O)N1[C@H](C(=O)N[C@@H](CCCC)C(=O)NC(C)(C)C(=O)N[C@@H](Cc2ccc(Cl)cc2)C(=O)O)C[C@@H]2CCCC[C@@H]21) [SEQ ID NO: 562]
0.12 nM | 0.647 nM | XXXQRPRLSHKGPXPF ({Oc}[AC4Abu][Aeea][Aeea]QRP[NMeArg]LSHKGP[Nle]P[4-Cl-F]{COOH}) [SEQ ID NO: 493]
4.3 nM | 12.7 nM | Hexanoyl-[AC4Abu][AEEA][AEEA][hArg][dR]Q[hArg]P[dR][NMeL]SHKG[Pip′][Phe(4-I)]P[dBip]-OH [SEQ ID NO: 563]
0.0874 nM | 0.481 nM | XXXQRPRLSHKGPXPF ({HDA}[AC4Abu][Aeea][Aeea]QRP[NMeArg]LSHKGP[Nle]P[4-Cl-F]{COOH}) [SEQ ID NO: 496]
0.0553 nM | 0.274 nM | XXXQRPRLSHKGPXPF ({hexanoyl}[AC4Abu][Aeea][Aeea]QR[aMePro][hArg][aMeLeu]SHKGP[Nle]P[4-Cl-F]{COOH}) [SEQ ID NO: 560]
